How the values were obtained:
[1] = molecular target: T1, recombinant human TfR-1, His-tagged (Sino Biological 11020-H07H) (human, UniProt P02786 89-760); experiment: SPR, His-captured TfR1
T1 construct: bought; His-tagged; also called hTfR1; hTfR-1
Protocol: (§1) Detailed binding kinetic analyses were performed to gain a better understanding of the relationship between affinity and brain penetration of the Clone C variants. Biacore surface plasmon resonance (SPR) analysis using immobilised mouse and human TfR-1 was performed for selected clones (Table 2).
(§2) Binding kinetics of VNAR-Fcs was determined by surface plasmon resonance (Biacore T200, GE Healthcare). CMS chips were coated with anti-His antibodies (His Capture Kit, GE Healthcare) as recommended by the manufacturer and human or mouse his-tagged TfR1 (SinoBiological) at 10 ug/mL in HBS-EP+ (GE Healthcare) was captured at flow rate 10 ul/min (contact time 120 s). […] A flow cell without TfR1 captured served as a reference. Sensorgrams were fitted and kinetic constants were determined using Biacore T200 Evaluation software. Chips were regenerated in 10 mM Glycine-HCl, pH 1.5 (contact time: 120 s at flow rate 30 ul/min).

[2] = molecular target: T2, recombinant mouse TfR-1, His-tagged (Sino Biological 50741-M07H) (mouse, UniProt Q62351 89-763); experiment: SPR, His-captured TfR1
T2 construct: bought; His-tagged; also called mTfR1; mTfR-1
Protocol: as §1, §2

[3] = molecular target: T3, mTfR-1 K191A on Expi293 cells (mouse, UniProt Q62351 1-763); experiment: FACS, transfected Expi293 cells
T3 construct: whole, on cells
Protocol: (§3) Transfected Expi293 cells were harvested and 2×10⁵ cells were transferred into V-bottom 96-well plate for staining. The cells were blocked in PBS containing 1% BSA (FACS buffer) for 10 min on ice, centrifuged to remove the buffer and 1 μl of 8D3-hFc formatted antibody, Clone C-hFc or Clone C variants 18 and 13 (Table 1), all at 1 mg/ml, was added to the wells. The cells were co-stained with mouse Tf-Alexa647 (Jackson ImmunoResearch). After 30 minutes on ice, the cells were washed and incubated with anti-hFc-PE (eBioscience) for 20 minutes on ice, washed again and resuspended in […] of FACS buffer containing 5 μl of propidium iodide (PI) to exclude dead cells from the analysis. The percentage of double-positive cells that stained with mTf and the tested antibody was determined on a CytoFlex cytometer (Beckman Coulter). The percentage of cells in the double positive quadrant (Q2) for WT mTfR-1 was used for normalization.

[4] = molecular target: T4, mTfR-1 I198A on Expi293 cells (mouse, UniProt Q62351 1-763); experiment: FACS, transfected Expi293 cells
T4 construct: whole, on cells
Protocol: as §3

[5] = molecular target: T5, mTfR-1 S225A on Expi293 cells (mouse, UniProt Q62351 1-763); experiment: FACS, transfected Expi293 cells
T5 construct: whole, on cells
Protocol: as §3

[6] = molecular target: T6, mTfR-1 E229A on Expi293 cells (mouse, UniProt Q62351 1-763); experiment: FACS, transfected Expi293 cells
T6 construct: whole, on cells
Protocol: as §3

[7] = molecular target: T7, mTfR-1 G254A on Expi293 cells (mouse, UniProt Q62351 1-763); experiment: FACS, transfected Expi293 cells
T7 construct: whole, on cells
Protocol: as §3

[8] = molecular target: T8, mTfR-1 N277A on Expi293 cells (mouse, UniProt Q62351 1-763); experiment: FACS, transfected Expi293 cells
T8 construct: whole, on cells
Protocol: as §3

[9] = molecular target: T9, mTfR-1 P325A on Expi293 cells (mouse, UniProt Q62351 1-763); experiment: FACS, transfected Expi293 cells
T9 construct: whole, on cells
Protocol: as §3

[10] = molecular target: T10, mTfR-1 S326A on Expi293 cells (mouse, UniProt Q62351 1-763); experiment: FACS, transfected Expi293 cells
T10 construct: whole, on cells
Protocol: as §3

[11] = molecular target: T11, mTfR-1 P332A on Expi293 cells (mouse, UniProt Q62351 1-763); experiment: FACS, transfected Expi293 cells
T11 construct: whole, on cells
Protocol: as §3

[12] = molecular target: T12, mTfR-1 N333A on Expi293 cells (mouse, UniProt Q62351 1-763); experiment: FACS, transfected Expi293 cells
T12 construct: whole, on cells
Protocol: as §3

[13] = molecular target: T13, mTfR-1 I378A on Expi293 cells (mouse, UniProt Q62351 1-763); experiment: FACS, transfected Expi293 cells
T13 construct: whole, on cells
Protocol: as §3

[14] = molecular target: T14, mTfR-1 I192A on Expi293 cells (mouse, UniProt Q62351 1-763); experiment: FACS, transfected Expi293 cells; mutant poorly expressed
T14 construct: whole, on cells; also called 1192A
Protocol: as §3

[15] = molecular target: T15, mTfR-1 N201A on Expi293 cells (mouse, UniProt Q62351 1-763); experiment: as above
T15 construct: whole, on cells
Protocol: as §3

[16] = molecular target: T16, mTfR-1 F224A on Expi293 cells (mouse, UniProt Q62351 1-763); experiment: as above
T16 construct: whole, on cells
Protocol: as §3

[17] = molecular target: T17, mTfR-1 A278T on Expi293 cells (mouse, UniProt Q62351 1-763); experiment: as above
T17 construct: whole, on cells
Protocol: as §3

[18] = molecular target: T18, mTfR-1 L331A on Expi293 cells (mouse, UniProt Q62351 1-763); experiment: as above
T18 construct: whole, on cells
Protocol: as §3

[19] = molecular target: T19, mTfR-1 I334A on Expi293 cells (mouse, UniProt Q62351 1-763); experiment: as above
T19 construct: whole, on cells
Protocol: as §3

[20] = molecular target: T20, mTfR-1 V379A on Expi293 cells (mouse, UniProt Q62351 1-763); experiment: as above
T20 construct: whole, on cells
Protocol: as §3

[21] = molecular target: T21, mTfR-1 N381A on Expi293 cells (mouse, UniProt Q62351 1-763); experiment: as above
T21 construct: whole, on cells
Protocol: as §3

[22] = molecular target: T22, purified mTfR1 mutant M2 (NAS) (mouse, UniProt Q62351 89-763); experiment: ELISA, coated purified mTfR-1
T22 construct: also called G254A

[23] = molecular target: T23, mTfR-1 L256A on Expi293 cells (mouse, UniProt Q62351 1-763); experiment: FACS, transfected Expi293 cells; mutant poorly expressed
T23 construct: whole, on cells
Protocol: as §3

T8 sequence (Q62351 whole entry N277A): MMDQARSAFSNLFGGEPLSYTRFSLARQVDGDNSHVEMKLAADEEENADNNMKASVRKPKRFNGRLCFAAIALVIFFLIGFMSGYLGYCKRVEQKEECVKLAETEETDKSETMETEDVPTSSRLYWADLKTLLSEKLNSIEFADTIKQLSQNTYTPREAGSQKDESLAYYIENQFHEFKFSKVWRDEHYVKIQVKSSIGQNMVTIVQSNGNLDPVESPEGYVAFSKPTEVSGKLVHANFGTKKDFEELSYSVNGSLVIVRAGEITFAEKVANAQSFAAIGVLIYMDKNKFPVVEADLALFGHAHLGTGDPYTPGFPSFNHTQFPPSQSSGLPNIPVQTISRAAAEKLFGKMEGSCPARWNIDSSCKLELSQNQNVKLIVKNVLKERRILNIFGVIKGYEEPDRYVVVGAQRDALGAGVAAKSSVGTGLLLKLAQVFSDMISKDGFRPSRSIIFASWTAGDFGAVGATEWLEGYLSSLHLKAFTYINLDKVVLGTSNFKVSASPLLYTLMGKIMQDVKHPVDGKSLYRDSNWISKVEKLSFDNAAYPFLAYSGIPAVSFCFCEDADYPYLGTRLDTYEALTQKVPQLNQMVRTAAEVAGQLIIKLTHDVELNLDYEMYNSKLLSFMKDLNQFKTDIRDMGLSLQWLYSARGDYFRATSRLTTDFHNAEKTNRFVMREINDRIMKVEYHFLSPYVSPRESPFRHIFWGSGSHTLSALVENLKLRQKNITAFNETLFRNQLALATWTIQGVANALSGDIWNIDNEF
T15 sequence (Q62351 whole entry N201A): as the sequence (Q62351 whole entry N277A) above, with N201A, A277N counted along it
T9 sequence (Q62351 whole entry P325A): as the sequence (Q62351 whole entry N277A) above, with A277N, P325A counted along it
T21 sequence (Q62351 whole entry N381A): as the sequence (Q62351 whole entry N277A) above, with A277N, N381A counted along it
T2 sequence (Q62351 89-763 limits assumed, stated change not applied): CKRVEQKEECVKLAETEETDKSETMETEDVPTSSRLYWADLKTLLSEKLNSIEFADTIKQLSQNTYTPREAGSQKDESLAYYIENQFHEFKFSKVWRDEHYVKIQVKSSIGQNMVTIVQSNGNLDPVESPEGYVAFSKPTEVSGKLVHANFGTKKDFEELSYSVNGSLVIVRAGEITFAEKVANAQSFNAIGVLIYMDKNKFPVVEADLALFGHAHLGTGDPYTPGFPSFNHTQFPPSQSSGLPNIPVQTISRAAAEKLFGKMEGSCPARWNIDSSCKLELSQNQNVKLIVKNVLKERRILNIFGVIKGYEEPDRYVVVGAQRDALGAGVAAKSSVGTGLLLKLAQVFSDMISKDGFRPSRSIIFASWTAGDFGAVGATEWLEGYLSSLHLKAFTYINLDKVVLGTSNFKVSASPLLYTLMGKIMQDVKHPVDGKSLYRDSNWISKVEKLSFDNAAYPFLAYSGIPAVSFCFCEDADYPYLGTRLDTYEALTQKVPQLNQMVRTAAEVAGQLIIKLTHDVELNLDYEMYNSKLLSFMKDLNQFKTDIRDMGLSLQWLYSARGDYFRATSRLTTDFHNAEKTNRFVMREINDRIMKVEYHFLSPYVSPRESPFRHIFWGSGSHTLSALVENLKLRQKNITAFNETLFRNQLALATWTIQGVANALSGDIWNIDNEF
T17 sequence (Q62351 whole entry A278T): as the sequence (Q62351 whole entry N277A) above, with A277N, A278T counted along it
T14 sequence (Q62351 whole entry I192A): as the sequence (Q62351 whole entry N277A) above, with I192A, A277N counted along it
T16 sequence (Q62351 whole entry F224A): as the sequence (Q62351 whole entry N277A) above, with F224A, A277N counted along it
T7 sequence (Q62351 whole entry G254A): as the sequence (Q62351 whole entry N277A) above, with G254A, A277N counted along it
T5 sequence (Q62351 whole entry S225A): as the sequence (Q62351 whole entry N277A) above, with S225A, A277N counted along it
T10 sequence (Q62351 whole entry S326A): as the sequence (Q62351 whole entry N277A) above, with A277N, S326A counted along it
T4 sequence (Q62351 whole entry I198A): as the sequence (Q62351 whole entry N277A) above, with I198A, A277N counted along it
T1 sequence (P02786 89-760 limits assumed): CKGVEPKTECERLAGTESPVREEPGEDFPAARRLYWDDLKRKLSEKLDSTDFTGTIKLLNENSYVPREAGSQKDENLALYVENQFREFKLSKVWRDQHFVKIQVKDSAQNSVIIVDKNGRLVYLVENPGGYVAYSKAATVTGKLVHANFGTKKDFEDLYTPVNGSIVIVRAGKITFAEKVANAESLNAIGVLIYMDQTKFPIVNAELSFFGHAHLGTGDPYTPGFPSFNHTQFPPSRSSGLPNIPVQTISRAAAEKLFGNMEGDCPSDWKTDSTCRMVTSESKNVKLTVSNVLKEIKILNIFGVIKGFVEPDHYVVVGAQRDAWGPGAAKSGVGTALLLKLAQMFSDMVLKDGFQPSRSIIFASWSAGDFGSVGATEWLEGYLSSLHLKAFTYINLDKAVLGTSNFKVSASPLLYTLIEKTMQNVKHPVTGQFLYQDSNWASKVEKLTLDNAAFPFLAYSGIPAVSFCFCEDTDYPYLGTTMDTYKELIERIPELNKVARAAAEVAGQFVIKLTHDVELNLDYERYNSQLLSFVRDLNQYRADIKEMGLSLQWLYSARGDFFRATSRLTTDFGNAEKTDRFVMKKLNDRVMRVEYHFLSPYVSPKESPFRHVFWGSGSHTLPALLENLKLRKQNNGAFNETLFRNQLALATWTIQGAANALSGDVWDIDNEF
T19 sequence (Q62351 whole entry I334A): as the sequence (Q62351 whole entry N277A) above, with A277N, I334A counted along it
T3 sequence (Q62351 whole entry K191A): as the sequence (Q62351 whole entry N277A) above, with K191A, A277N counted along it
T13 sequence (Q62351 whole entry I378A): as the sequence (Q62351 whole entry N277A) above, with A277N, I378A counted along it
T23 sequence (Q62351 whole entry L256A): as the sequence (Q62351 whole entry N277A) above, with L256A, A277N counted along it
T20 sequence (Q62351 whole entry V379A): as the sequence (Q62351 whole entry N277A) above, with A277N, V379A counted along it
T11 sequence (Q62351 whole entry P332A): as the sequence (Q62351 whole entry N277A) above, with A277N, P332A counted along it
T18 sequence (Q62351 whole entry L331A): as the sequence (Q62351 whole entry N277A) above, with A277N, L331A counted along it
T12 sequence (Q62351 whole entry N333A): as the sequence (Q62351 whole entry N277A) above, with A277N, N333A counted along it
T6 sequence (Q62351 whole entry E229A): as the sequence (Q62351 whole entry N277A) above, with E229A, A277N counted along it
T22 sequence (Q62351 other isoform, or with tags, fused parts or gaps mutant): as the sequence (Q62351 89-763 limits assumed, stated change not applied) above, with G166A counted along it

Binder | Kd [1] [nM] | koff [1] [s⁻¹] | kon [1] [M⁻¹ s⁻¹] | % double-positive cells vs WT [4] [%] | % double-positive cells vs WT [5] [%] | % double-positive cells vs WT [6] [%] | % double-positive cells vs WT [7] [%] | % double-positive cells vs WT [8] [%] | % double-positive cells vs WT [9] [%] | % double-positive cells vs WT [10] [%] | % double-positive cells vs WT [11] [%] | % double-positive cells vs WT [12] [%] | % double-positive cells vs WT [13] [%] | % double-positive cells vs WT [15] [%] | % double-positive cells vs WT [16] [%] | % double-positive cells vs WT [17] [%] | % double-positive cells vs WT [18] [%] | % double-positive cells vs WT [19] [%] | % double-positive cells vs WT [20] [%] | % double-positive cells vs WT [21] [%] | further results
Clone C VNAR-hFc fusion (Fc fusion, not shown: a dimerising Fc or GST, bivalent VNAR-Fc; also called Clone C-hFc) ARVDQTPQTITKETGESLTINCVLRDSNCALSSTYWYRKKSGSTNEENISKGGRYVETVNSGSKSFSLRINDLTVEDSGTYRCNVVQYPSYNNYFWCDVYGDGTAVTVN | 0.604 | 0.000145 | 240000 | 239 | 180 | 81 | 35 | 137 | 148 | 136 | 257 | 213 | 142 | 0 | 0 | 25 | 0 | 0 | 0 | 32 | Kd [2]: 0.892 nM; koff [2]: 0.000191 s⁻¹; kon [2]: 214000 M⁻¹ s⁻¹; % double-positive cells vs WT [3]: 51%; % double-positive cells vs WT [14]: 61%
Clone C variant 18 VNAR-hFc (Fc fusion, not shown: a dimerising Fc or GST, also called Clone C v18; Clone C var; 18) ARVDQTPQTITKETGESLTINCVLRDSNCALSSTYWYRKKSGSTNEENISKGGRYVETVNSGSKSFSLRINDLTVEDSGTYRCNVVQYPQYPNYFWCDVYGDGTAVTVN | 0.314 | 0.000113 | 360000 | 79 | 163 | 51 | 32 | 155 | 175 | 129 | 218 | 161 | 80 | 0 | 0 | 21 | 0 | 0 | 0 | 0 | Kd [2]: 0.863 nM; koff [2]: 0.000269 s⁻¹; kon [2]: 312000 M⁻¹ s⁻¹; EC50 [22]: 200 nM; % double-positive cells vs WT [3]: 25%; % double-positive cells vs WT [14]: 18%; % double-positive cells vs WT [23]: 0%
Clone C variant 13 VNAR-hFc (Fc fusion, not shown: a dimerising Fc or GST, also called Clone C v13; Clone C var; 13) ARVDQTPQTITKETGESLTINCVLRDSNCALSSTYWYRKKSGSTNEENISKGGRYVETVNSGSKSFSLRINDLTVEDSGTYRCNVVQYPQQDNYFWCDVYGDGTAVTVN | 0.574 | 0.00017 | 297000 | 73 | 73 | 43 | 22 | 84 | 83 | 77 | 79 | 94 | 115 | 0 | 0 | 12 | 0 | 0 | 0 | 11 | Kd [2]: 0.165 nM; koff [2]: 4.09e-05 s⁻¹; kon [2]: 248000 M⁻¹ s⁻¹; EC50 [22]: 13 nM; % double-positive cells vs WT [23]: 0%
8D3 antibody (anti-mouse TfR-1 control; 8D3-hFc formatted antibody) (antibody, V domains shown) VH: EVQLVESGGGLVQPGNSLTLSCVASGFTFSNYGMHWIRQAPKKGLEWIAMIYYDSSKMNYADTVKGRFTISRDNSKNTLYLEMNSLRSEDTAMYYCAVPTSHYVVDVWGQGVSVTVSS VL: DIQMTQSPASLSASLEEIVTITCQASQDIGNWLAWYQQKPGKSPQLLIYGATSLADGVPSRFSGSRSGTQFSLKISRVQVEDIGIYYCLQAYNTPWTFGGGTKLELK | – | – | – | 94 | 64 | 68 | 58 | 56 | 119 | 31 | 57 | 90 | 92 | 1 | 0 | 45 | 0 | 0 | 0 | 26 | % double-positive cells vs WT [3]: 91%; % double-positive cells vs WT [14]: 13%; % double-positive cells vs WT [23]: 13%

From patent US20210403591A1 (OSSIANIX, published 2021)
